Assay results from the supplement of paper PMC10567573.

B1: FCHSD1 (parent)
chain: LQEPGVFSPTPPQQFQPAGTDQVC
B2: C20orf112 (parent)
chain: YANGGLNYSYRGYGALSSNLQPPA
B3: CLCN6 (parent)
chain: VGEIVGIITRHNLTYEFLQARLRQ

Variants of: B1
Test: protein stability index of a GFP-peptide fusion (GPS, HEK-293T) (PSI 1-6); higher = more stable
Conditions: c terminus: a fixed tail appended
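Further: lentivirally expressed fusions sorted by FACS into six bins by GFP to DsRed ratio, PSI derived from sequencing read proportions per bin multiplied by bin number.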

Protein stability index: each site, then its substitutions
S8: R 4.57; W 3.85

Variants of: B2
Test: as above
Conditions: c terminus: a fixed tail appended

Protein stability index of substitutions, site by site:
P23: E 2.05; V 1.84; H 1.34; C 1.92; Q 1.77; D 2.09; I 2.09; L 1.54; Y 1.9; G 2.6; T 1.6; F 2.52; R 1.81; S 1.65; W 2.61; A 1.81; N 2.17; M 2.3; K 1.97
Q21: P 2.28; A 1.66; I 2.76; E 2.16; W 1.75; M 1.71; D 2.22; G 1.21; N 1.64; L 1.99; K 2.17; R 1.75; T 2.61; Y 2.29; V 1.59; S 2.5; F 2.26; C 1.74; H 2.04
A24: M 1.35; G 3.04; W 1.86; K 2; C 2.37; S 1.82; E 1.95; V 2.23; P 2.73; F 1.78; T 2.52; N 1.9; H 2.19; R 2.48; D 1.86; Q 2.27; I 2.43; Y 1.75; L 1.62
P22: Y 3.09; H 1.94; A 1.5; K 2.66; I 2.35; T 1.71; M 1.63; R 1.76; Q 2; W 1.97; V 1.83; C 2.97; L 2.27; S 1.62; N 2.33; G 2.65; D 1.6; E 2.41; F 3.69
L20: W 1.84; Y 1.34

Variants of: B3
Test: as above
Conditions: c terminus: a fixed tail appended

Protein stability index of substitutions, site by site:
Y15: A 2.07; V 1.63; R 4.35; S 1.83; P 1.62; K 1.47; D 1.51; Q 2.38; G 1.65; F 2.95
L18: G 1.58; E 3.96; K 2.67; S 1.02; P 2.81; M 2.33; N 1.6; Q 2.07; I 2.62; D 2.26; Y 4.04; R 2.55; F 2.71; A 2.67
L13: P 1.94; N 1.08; Q 1.69; H 1.51; I 3.13; C 2.08; G 1.7; F 2.15; W 3.73; E 2.18; A 1.63; V 2.04; M 1.86
H11: V 2.32; D 2.48; N 4.18; G 1.76
T9: D 1.92; K 1.29; N 2.88; E 1.38; S 2.77; C 2.71; G 2.63; P 2.78; F 2.35; R 1.4; L 1.89
A20: L 2.08; I 2.56; Y 1.04; S 2.02; Q 2.04
R10: T 3.15; L 4.12; K 2.19; N 2.88; P 1.75; E 2.92; D 2.73; Y 1.93
Q19: P 1.62; S 2.49; K 4.39; E 2.47; Y 1.01; I 3.35; G 1.52
E3: R 2.51; D 2.05; Y 3.28; T 1.74; P 3.11; V 2.62; F 1.43; H 2.38; C 2.72; Q 3.17; A 2.59; W 2.42
R21: Y 1.86; W 2.19; G 1.89
